Measurements: the supplement of paper PMC9233669
Fewer inactive variants are shown than the library holds.

Tests used:
biotinyl-Val-oxazolone = assay: self-aminoacylation, catalytic enhancement (BVO) (fold over background); higher = more active; k-Seq, kA / k0A0; sequences stand for … in GGGAAUGGAUCCACAUCUACGAAUUC…UUCACUGCAGACUUGACGAAGCUG
How it was run: (§1)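 Working in 50 μL HEPES/NaCl/KCl/MgCl2/CaCl2 buffer with 5% acetonitrile at pH 6.9–7.0, mutagenized RNA pools (0.43 μM; 21-nt variable region) were reacted with 2–1250 μM of each biotinyl-aminoacyl-oxazolone for 90 minutes at room temperature. Streptavidin capture followed, with quantification by triplicate qPCR and Illumina sequencing. Catalytic enhancement is reported as median kA over the uncatalyzed rate, the low-activity peak of a bimodal Gaussian fit to the data.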

biotinyl-Leu-oxazolone = assay: self-aminoacylation, catalytic enhancement (BLO) (fold over background); higher = more active; k-Seq, kA / k0A0; sequences stand for … in GGGAAUGGAUCCACAUCUACGAAUUC…UUCACUGCAGACUUGACGAAGCUG
How it was run: as §1

biotinyl-Met-oxazolone = assay: self-aminoacylation, catalytic enhancement (BMO) (fold over background); higher = more active; k-Seq, kA / k0A0; sequences stand for … in GGGAAUGGAUCCACAUCUACGAAUUC…UUCACUGCAGACUUGACGAAGCUG
How it was run: as §1

biotinyl-Ile-oxazolone = assay: self-aminoacylation, catalytic enhancement (BIO) (fold over background); higher = more active; k-Seq, kA / k0A0; sequences stand for … in GGGAAUGGAUCCACAUCUACGAAUUC…UUCACUGCAGACUUGACGAAGCUG
How it was run: as §1

biotinyl-Phe-oxazolone = assay: self-aminoacylation, catalytic enhancement (BFO) (fold over background); higher = more active; k-Seq, kA / k0A0; sequences stand for … in GGGAAUGGAUCCACAUCUACGAAUUC…UUCACUGCAGACUUGACGAAGCUG
How it was run: as §1

biotinyl-Trp-oxazolone = assay: self-aminoacylation, catalytic enhancement (BWO) (fold over background); higher = more active; k-Seq, kA / k0A0; sequences stand for … in GGGAAUGGAUCCACAUCUACGAAUUC…UUCACUGCAGACUUGACGAAGCUG
How it was run: as §1

Sequence | self-aminoacylation (biotinyl-Val-oxazolone) | self-aminoacylation (biotinyl-Leu-oxazolone) | self-aminoacylation (biotinyl-Met-oxazolone) | self-aminoacylation (biotinyl-Ile-oxazolone) | self-aminoacylation (biotinyl-Phe-oxazolone) | self-aminoacylation (biotinyl-Trp-oxazolone)
AUUACUCUGUUCAUCGAGUGA [Fam2.1 aminoacylation ribozyme variant] | 1.94 | 3.42 | 2.88 | 1.9 | 3.86 | 3.94
AUUACUCUUGUCAUCGAGUGA [Fam2.1 aminoacylation ribozyme variant] | 3.45 | 6.33 | 6.03 | 3.58 | 22 | 7.7
AUUAGCCUAGUCAUCGAGUGA [Fam2.1 aminoacylation ribozyme variant] | 2.18 | 2.79 | 2.65 | 2.47 | 4.14 | 3.09
AUUAGCCUGGACAUCGAGUGA [Fam2.1 aminoacylation ribozyme variant] | 3.53 | 9.56 | 8.78 | 3.91 | 45.3 | 8.52
AUUAGCCUGGUCAUCGAGCGA [Fam2.1 aminoacylation ribozyme variant] | 2.53 | 2.59 | 2.52 | 2.55 | 2.04 | 4.5
AUUAGCCUGGUCAUCGCGUGA [Fam2.1 aminoacylation ribozyme variant] | 11.2 | 22.3 | 21.7 | 10.3 | 165 | 22.6
AUUAGCCUGGUCAUCUAGUGA [Fam2.1 aminoacylation ribozyme variant] | 2.98 | 5.06 | 4.79 | 3.39 | 19.2 | 6.32
AUUAGCCUGGUCAUGGAGUGA [Fam2.1 aminoacylation ribozyme variant] | 2.72 | 4.02 | 4.09 | 2.77 | 17.2 | 4.92
AUUAGCCUGUUCAUCGAGUGA [Fam2.1 aminoacylation ribozyme variant] | 3.27 | 5.5 | 5.64 | 3.04 | 18 | 7.22
AUUAGUCUGGUCAUCGAGUGA [Fam2.1 aminoacylation ribozyme variant] | 2.62 | 4.42 | 3.43 | 3.35 | 13 | 3.94
AUUAUCCCGGUCAUCGAGUGA [Fam2.1 aminoacylation ribozyme variant] | 4.35 | 10.6 | 8.46 | 4.32 | 61.2 | 11
AUUAUCCUAGUCAUCGAGUGA [Fam2.1 aminoacylation ribozyme variant] | 3.15 | 6.53 | 5.97 | 3.35 | 26.4 | 8.1
AUUAUCCUGAUCAUCGAGUGA [Fam2.1 aminoacylation ribozyme variant] | 4.92 | 11.4 | 11.1 | 4.92 | 60 | 11.8
AUUAUCCUGGUCAUAGAGUGA [Fam2.1 aminoacylation ribozyme variant] | 4.11 | 10.1 | 9.86 | 4.58 | 59 | 11.7
AUUAUCCUGGUCAUCGAGAGA [Fam2.1 aminoacylation ribozyme variant] | 0.989 | 0.847 | 0.869 | 1.08 | 1.15 | 0.862
AUUAUCCUGGUCAUCGUGUGA [Fam2.1 aminoacylation ribozyme variant] | 2.05 | 3.83 | 3.54 | 2.15 | 28.6 | 5.91
AUUAUCCUGUUCAUCGAGUGA [Fam2.1 aminoacylation ribozyme variant] | 3 | 6 | 5.98 | 2.87 | 22.6 | 7.47
AUUAUCCUUGUCAUCGAGUGA [Fam2.1 aminoacylation ribozyme variant] | 3.57 | 6.7 | 6.66 | 3.49 | 25.2 | 8.67
AUUCAACAAGGUCAUCGGGUG [Fam2.2 aminoacylation ribozyme variant] | 3.32 | 7.96 | 7.02 | 4.09 | 57.7 | 5.71
AUUCAACUAGGGCAUCGGGUG [Fam2.2 aminoacylation ribozyme variant] | 2.88 | 4.3 | 3.16 | 2.7 | 22.4 | 2.99
AUUCAACUAGGUCAUCGCGUG [Fam2.2 aminoacylation ribozyme variant] | 5.81 | 13.6 | 9.12 | 5.91 | 65.2 | 9.5
AUUCAACUAGGUCAUCGGGUA [Fam2.2 aminoacylation ribozyme variant] | 2.19 | 2.16 | 2.01 | 1.78 | 7.29 | 2.89
AUUCAACUAGGUCAUCGGGUC [Fam2.2 aminoacylation ribozyme variant] | 0.979 | 1.15 | 1.14 | 1.02 | 1.77 | 1.22
AUUCAACUAGGUCAUCGGGUU [Fam2.2 aminoacylation ribozyme variant] | 1.66 | 1.95 | 1.91 | 1.5 | 4.65 | 1.8
AUUCAACUAGGUCAUCGGUUG [Fam2.2 aminoacylation ribozyme variant] | 0.963 | 0.889 | 0.933 | 0.952 | 0.677 | 0.843
AUUCAACUAGGUCCUCGGGUG [Fam2.2 aminoacylation ribozyme variant] | 3.32 | 7.66 | 5.22 | 3.44 | 35.7 | 5.55

Sequence | self-aminoacylation (biotinyl-Val-oxazolone) | self-aminoacylation (biotinyl-Leu-oxazolone) | self-aminoacylation (biotinyl-Met-oxazolone) | self-aminoacylation (biotinyl-Ile-oxazolone) | self-aminoacylation (biotinyl-Phe-oxazolone) | self-aminoacylation (biotinyl-Trp-oxazolone)
AUUCAAUUAGGUCAUCGGGUG [Fam2.2 aminoacylation ribozyme variant] | 3.44 | 7.25 | 6 | 3.56 | 42.1 | 5.33
AUUCACAUAGGACAUCGGGUG [Fam2.2 aminoacylation ribozyme variant] | 3.22 | 4.24 | 3.84 | 2.84 | 17.7 | 3.93
AUUCACAUAGGUCAACGGGUG [Fam2.2 aminoacylation ribozyme variant] | 2.81 | 5.9 | 4.31 | 2.85 | 28.8 | 4.39
AUUCACAUAGGUCAUAGGGUG [Fam2.2 aminoacylation ribozyme variant] | 1.54 | 2.3 | 2.17 | 1.55 | 2.85 | 1.66
AUUCACAUAGGUCAUCGGGCG [Fam2.2 aminoacylation ribozyme variant] | 2.33 | 3.11 | 2.5 | 2.05 | 6.68 | 2.3
AUUCACAUAGGUCAUUGGGUG [Fam2.2 aminoacylation ribozyme variant] | 3.23 | 5.11 | 4.35 | 2.74 | 29.1 | 4.51
AUUCACAUAGGUCUUCGGGUG [Fam2.2 aminoacylation ribozyme variant] | 4.59 | 5.35 | 4.21 | 4.26 | 39.4 | 5.51
AUUCACAUAGGUGAUCGGGUG [Fam2.2 aminoacylation ribozyme variant] | 3.14 | 3.56 | 3.4 | 3.05 | 20.5 | 3.79
AUUCACAUAGUUCAUCGGGUG [Fam2.2 aminoacylation ribozyme variant] | 2.3 | 3.48 | 2.76 | 2.27 | 19.2 | 2.42
AUUCACAUGGGUCAUCGGGUG [Fam2.2 aminoacylation ribozyme variant] | 5.96 | 11.6 | 9.66 | 5.6 | 70.4 | 8.84
AUUCACCAAAGUCAUCGGGUG [Fam2.2 aminoacylation ribozyme variant] | 8.23 | 19.5 | 15.3 | 9.57 | 110 | 13.6
AUUCACCAAGGUCACCGGGUG [Fam2.2 aminoacylation ribozyme variant] | 6.12 | 9.86 | 8.25 | 5.1 | 55.5 | 5.09
AUUCACCAAGGUCAUCGAGUG [Fam2.2 aminoacylation ribozyme variant] | 2.23 | 4.52 | 4.1 | 2.27 | 14.4 | 2.57
AUUCACCAAGGUCAUCGGGCG [Fam2.2 aminoacylation ribozyme variant] | 3.64 | 4.59 | 4.07 | 3.24 | 16 | 3.82
AUUCACCAAGGUCUUCGGGUG [Fam2.2 aminoacylation ribozyme variant] | 4.41 | 6.3 | 5.94 | 4.41 | 37.2 | 4.45
AUUCACCCAGGUCAACGGGUG [Fam2.2 aminoacylation ribozyme variant] | 2.53 | 4.29 | 3.24 | 1.96 | 19.7 | 3.81
AUUCACCCAGGUCAUCGGGGG [Fam2.2 aminoacylation ribozyme variant] | 1.6 | 2.17 | 2.1 | 1.86 | 11.7 | 1.92
AUUCACCGAAGUCAUCGGGUG [Fam2.2 aminoacylation ribozyme variant] | 9.73 | 23.7 | 17.6 | 9.89 | 152 | 15.1
AUUCACCGAGGACAUCGGGUG [Fam2.2 aminoacylation ribozyme variant] | 3.78 | 6.02 | 5.56 | 3.59 | 35.9 | 5.74
AUUCACCGAGGUCAGCGGGUG [Fam2.2 aminoacylation ribozyme variant] | 4.67 | 6.67 | 5.57 | 5.26 | 38.8 | 6.61
AUUCACCGAGGUCAUAGGGUG [Fam2.2 aminoacylation ribozyme variant] | 1.91 | 3.17 | 2.29 | 1.71 | 7.43 | 2.21
AUUCACCGAGGUCAUCCGGUG [Fam2.2 aminoacylation ribozyme variant] | 8.04 | 12.4 | 9.07 | 7.31 | 80.2 | 10.1
AUUCACCGAGGUCAUCGAGUG [Fam2.2 aminoacylation ribozyme variant] | 2.17 | 3.6 | 2.89 | 1.75 | 12.6 | 2.82
AUUCACCGAGGUCAUCGGGUA [Fam2.2 aminoacylation ribozyme variant] | 3.97 | 3.22 | 2.93 | 3.33 | 25 | 4
AUUCACCGAGGUCAUCGGGUG [Fam2.2 aminoacylation ribozyme variant] | 6.85 | 14.2 | 11.3 | 6.19 | 87 | 9.63
